Source: patent publication US20260209332A1 (SORRISO PHARMACEUTICALS, published 2026)
Values belong to the binder of their own block, whether it stands above or below them.

How the values were obtained:
[1] = target: T1, tumor necrosis factor alpha (TNF-alpha) (UniProt P01375 77-233); test: competition ELISA on TNF-alpha; competitor: biotinylated adalimumab
T1 construct: Called a homo-trimeric protein in the general description

[2] = target: T1, tumor necrosis factor alpha (TNF-alpha); test: competition ELISA on TNF-alpha; competitor: biotinylated adalimumab; arm liberated by trypsin
interleukin-23 (IL-23) [3] = target: T2, interleukin-23 (IL-23) (UniProt Q9NPF7 20-189; P29460 23-328); test: IL-23/IL-23R interference ELISA; blocked interaction: IL-23 with IL-23 receptor; arm liberated by trypsin
T2 sequence (looked up) 1: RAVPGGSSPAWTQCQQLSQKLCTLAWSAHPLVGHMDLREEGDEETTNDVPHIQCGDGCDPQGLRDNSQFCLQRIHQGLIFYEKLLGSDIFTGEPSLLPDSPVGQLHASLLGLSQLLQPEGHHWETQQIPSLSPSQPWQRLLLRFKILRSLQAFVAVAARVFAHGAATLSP
T2 sequence (looked up) 2: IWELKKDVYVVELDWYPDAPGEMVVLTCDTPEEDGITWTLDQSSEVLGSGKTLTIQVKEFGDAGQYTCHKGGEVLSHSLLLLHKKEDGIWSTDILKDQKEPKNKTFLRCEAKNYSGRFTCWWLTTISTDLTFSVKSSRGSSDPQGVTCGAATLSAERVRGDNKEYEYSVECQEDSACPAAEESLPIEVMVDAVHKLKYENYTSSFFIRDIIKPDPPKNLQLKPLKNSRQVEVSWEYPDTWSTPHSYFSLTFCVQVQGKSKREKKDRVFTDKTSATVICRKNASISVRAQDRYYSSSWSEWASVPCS

interleukin-23 (IL-23) [4] = target: T2, interleukin-23 (IL-23); test: IL-23/IL-23R interference ELISA; blocked interaction: IL-23 with IL-23 receptor

T1 sequence (P01375 77-233 limits assumed): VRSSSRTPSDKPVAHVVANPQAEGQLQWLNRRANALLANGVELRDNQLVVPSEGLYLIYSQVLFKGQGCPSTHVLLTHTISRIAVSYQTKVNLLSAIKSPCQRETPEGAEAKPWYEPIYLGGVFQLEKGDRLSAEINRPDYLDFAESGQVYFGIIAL

B1: TNF-alpha inhibitor (anti-TNF-alpha single domain antibody, parent monomer) (VHH)
VHH: DVQLVESGGGLVQPGGSLKLSCAASGFDFSSHWMYWVRQAPGKELEWLSEINTNGLITHYGDSVKGRFTVSRNNAANKMYLELTRLEPEDTALYYCARNQHGLNKGQGTQVTVSS
notes: Produced and purified from yeast; also called ID-38F
IC50 (read off the curve) [1]: ~0.3 nM

B2: liberated anti-TNF-alpha monomer arm of TNF-alpha/IL-23 dual inhibitor (VHH)
VHH: B1 VHH
notes: Cleavage product; carries the remnant of the linker at its C-terminus; also called liberated-TNF
IC50 (read off the curve) [2]: ~0.2 nM

Continued, in another order:

IC50 (read off the curve) (interleukin-23 (IL-23) [3]): ~0.1 nM
B3: liberated anti-IL-23 monomer arm of TNF-alpha/IL-23 dual inhibitor (VHH)
VHH: EVQLVESGGGQVQPGGSLSLSCESSVSIWSFKVMGWFRQVPGKQRELVATITTGGSPDYSDSVKGRFTISRDYDKRTLYLQMNSLKPEDTAVYYCAGRLWAHITSSGHDVWGQGTQVTVSS
notes: Cleavage product; carries the remnant of the linker at its N-terminus; also called liberated-IL-23

IC50 (read off the curve) (interleukin-23 (IL-23) [4]): ~0.2 nM
B4: IL-23 inhibitor (anti-IL-23 single domain antibody, parent monomer) (VHH)
VHH: B3 VHH
notes: Produced in yeast; also called IL-23: D1E ID-L253T

IC50 (read off the curve) (interleukin-23 (IL-23) [4]): ~0.2 nM
B5: TNF-alpha/IL-23 dual inhibitor (bispecific anti-TNF-alpha/anti-IL-23 domain antibody) (bispecific antibody)
chain: DVQLVESGGGLVQPGGSLKLSCAASGFDFSSHWMYWVRQAPGKELEWLSEINTNGLITHYGDSVKGRFTVSRNNAANKMYLELTRLEPEDTALYYCARNQHGLNKGQGTQVTVSSGGGGSGGGGSKGGGGSGGGGSEVQLVESGGGQVQPGGSLSLSCESSVSIWSFKVMGWFRQVPGKQRELVATITTGGSPDYSDSVKGRFTISRDYDKRTLYLQMNSLKPEDTAVYYCAGRLWAHITSSGHDVWGQGTQVTVSS
notes: Produced and purified from yeast; also called FA1K
IC50 (read off the curve) [1]: ~0.2 nM
